Paper PMC8528422

Biological target: FleQ, full length (FleQFL) (Pseudomonas aeruginosa) (UniProt G3XCV0)
Sequence (G3XCV0 whole entry): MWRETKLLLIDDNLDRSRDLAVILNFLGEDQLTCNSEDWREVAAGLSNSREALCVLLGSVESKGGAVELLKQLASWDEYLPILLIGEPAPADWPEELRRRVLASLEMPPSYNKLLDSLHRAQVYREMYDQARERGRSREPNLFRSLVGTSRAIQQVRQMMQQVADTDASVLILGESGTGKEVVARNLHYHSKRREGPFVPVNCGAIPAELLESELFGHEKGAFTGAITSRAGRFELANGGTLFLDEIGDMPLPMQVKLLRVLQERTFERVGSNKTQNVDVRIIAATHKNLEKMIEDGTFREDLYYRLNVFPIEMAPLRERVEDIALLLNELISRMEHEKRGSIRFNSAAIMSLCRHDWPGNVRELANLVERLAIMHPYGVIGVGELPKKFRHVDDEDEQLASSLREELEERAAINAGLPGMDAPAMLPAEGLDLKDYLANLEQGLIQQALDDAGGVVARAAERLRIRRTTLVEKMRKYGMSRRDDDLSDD

PANPRGHLEFFVERLVQHPATGSAV [C-terminal peptide of FleN comprising the last 25 amino acids]
ATPase activity of FleQ (1 μM) left with 100 μM C-terminal peptide of FleN: 66%
